In paper PMC5327734 (Nature communications, 2015):

Target: T1, pre-activated, recombinant, full length, human MST1 protein kinase (human, UniProt Q13043 1-487)
T1 sequence (looked up): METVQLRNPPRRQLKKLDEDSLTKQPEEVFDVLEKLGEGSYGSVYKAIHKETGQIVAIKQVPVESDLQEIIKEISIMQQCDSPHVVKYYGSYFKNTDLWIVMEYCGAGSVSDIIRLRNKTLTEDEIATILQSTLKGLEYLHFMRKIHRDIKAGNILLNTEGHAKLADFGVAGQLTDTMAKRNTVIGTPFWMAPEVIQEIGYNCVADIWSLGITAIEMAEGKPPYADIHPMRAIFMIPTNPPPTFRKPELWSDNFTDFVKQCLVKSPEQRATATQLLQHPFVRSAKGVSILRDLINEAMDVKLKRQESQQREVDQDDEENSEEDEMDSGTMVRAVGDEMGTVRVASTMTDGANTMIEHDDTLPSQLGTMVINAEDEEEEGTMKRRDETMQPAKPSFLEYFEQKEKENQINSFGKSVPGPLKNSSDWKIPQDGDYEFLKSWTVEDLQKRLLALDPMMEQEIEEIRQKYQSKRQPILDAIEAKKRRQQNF
Assay: pull-down

binding result: binds
B1: GST-YAP1-PR/TEAD (residues 2-150) (domain or fragment, UniProt P46937 2-150, looked up)
chain: DPGQQPPPQPAPQGQGQPPSQPPQGQGPPSGPGQPAPAATQAAPQAPPAGHQIVHVRGDSETDLEALFNAVMNPKTANVPQTVPMRLRKLPDSFFKPPEPKSHSRQASTDAGTAGALTPQHVRAHSSPASLQLGAVSPGTLTPTGVVSG
